Data as given in the DeepSol protein solubility set.

assay: soluble on expression in E. coli; label from the status in PepcDB or PDB records

Sequence	soluble on expression in E. coli
MEALLKEAFLEALKATDPYRLTAKHLPPWRPDLVLAVGKAAAPMLQAALDRYGEVPYHLTLPKGQKAPGLKAVFARHPVPDEESVRAAEEVLGLLQGLSPRARVLALLSGGGSALWCAPLGISLEEKRALTEALLKSGASIHEMNAVRKHLSQIKGGRALLATRAKVHVLLLSDVPGDDPSVIASGPFHPDPTTYAEALALLDRYGLAFPGARAVLRQGVEGRLPETLKPQDPALRRLAWRLVGTNLHLLRAAQRFLRARGFRAAVLSDRFGGEARALARFHAELIEAIRAHGVPFRKPLFLLSGGEAQVRVVGRGRGGRNLEFLLALYAHLKTPLYALAADSDGLDGNSGAAGALLTPAVWEKGLDPRPFLEENDSLGFFQEAGTLLKTGPTGTNLNDFRLLLVD	soluble
MAHHHHHHSLAKRIVGSTPKQDGFRMPGEFEPQEKVWMIWPERPDNWRDGGKPVQEAFTNVAKAISQFTPMNVVVSQQQFQNCRRQLPPEITVYEMSNNDAWVRDCGPSFVINDHGEIRGVDWTFNAWGGLVDGLYFPWDQDDLVAQKICEIEHVDSYRTDDFVLEGGSFHVDGQGTVLTTEMCLLSEGRNPQLSKEAIEQKLCDYLNVEKVLWLGDGIDPEETNGHVDDVACFIAPGEVACIYTEDQNSPFYEAAQDAYQRLLKMTDAKGRQLKVHKLCCPVKNVTIKGSFKIDFVEGTMPREDGDICIASYMNFLITNDGVIVPQYGDENDHLALEQVQTMFPDKKIVGVNTVEVVYGGGNIHCITQQEPKREG	not soluble
MNNREIVQKLWNLCNVLRDDGITYHQYVTELTYLLFLKMMKETGQEYIIPEPYRWDVLAKKDGIELKTYYQQLLMALGQEENELLRQIYTDATSNIREPKNLEKIIRTIDALDWYNAKEEGLGALYEGLLEKNASELKSGAGQYFTPRVLIDVIVELVDPKPGERCHDPAAGTFGFMIAASRHVRAKTDDYFDLSEEEIRFQKYEAFSGVELVRDTHRLAVMNALLHDVHGDILLGDTLSPLGEQLKGYDVILTNPPFGTKKGGERATRTDFTFMTSNKQLNFLQHIYRALRPNGKARAAVVVPDNVLFEGGVGADIRRDLMDKCNVHTILRLPTGIFYAQGVKTNVLFFTRGETDTGNTKEVWVYDLRTNMPSFGKRNPLTKDHFAGFMKAYTAEDRHQVDDERWNVFTRDDIAKKGDSLDIGLIADESLSVYDNLPDPIDSAEEAVEKLELAISLLNEVIAELKAAEHPPRYEPAKTEMLHVAERLEVSER	not soluble
MGSDKIHHHHHHMFVNRRAELKILHSAYESLKRGEKVNVAIIGPRRIGKTELLLKFKEEVNGVVPYLNLQRIGSLESFIFAYTRELLYEIAKVVGMSIERSDLLTWDDLLILSAKLDLEREVKAIRDGTLETLFEMQEAILEKTGQKAVFILDEFQEVVNFKGFLETMRAVTEKQRNIAYFISGSAVRMMEEILAPKNPFFGQFKRVYLRGLPKEDTIELAKTTLERAGIEATHSALELIYKLTQGHPFYVLALCRRLIEEGFEKVKSRDVYYAFLTELLSEKGDIYMHLEYLFNESLSRAYKGPIHKQILLILAQEEGLRLSEIARRLNKPSGEVSNYLKFLLRTDLILKQGERYYFTDKLMRFWLAKTYLGITELELRRERFLEELVRELEEKYLKAKKELGIAKEAMIRERMREIFDIDFKPYRRGDVEFDGVAFRDGVYVLEIKWRNRPATYKDVKDFIRKVKGEFGSATMFFFSRSGFTEKAKELCEKEGVKMLTPKDLGIS	not soluble
MDKELIKKNIKLMDATIEKMIHVMSSIHKLQLSVKELEDSNELTVSYVKRECTKLEERVKELRPSISRCVFMYREYVEEFETKLRDRIVTEKFFRIKRFYGKEVLAFKEFQEKYQNYIPKDIIDIKKQVRQKLEEVGYEIDGAFEGDFTSWVGVYARPKDKPTYLDPANAEEVVLQEKYSVNGFKQDFSEWFEFEIKDNVVYGILEHHHHHH	soluble
MADRIELRGLTVHGRHGVYDHERVAGQRFVIDVTVWIDLAEAANSDDLADTYDYVRLASRAAEIVAGPPRKLIETVGAEIADHVMDDQRVHAVEVAVHKPQAPIPQTFDDVAVVIRRSRRGGRGWVVPAGGAV	soluble
MIPEPDILVVGGGLGGVAAALAACRAGRSVVLTEETDWIGGQLTSQAVPPDEHPWVEQFGTTATYRRLREGIRQYYRQWYPLRAEAAALTDLNPGAGRVSKLCHEPRVALAVLEGMLAPHRAAGRLTVLTEHRPVAAETDNDVVRAVTLEDLRDGTRRTVPARYVLDATETGELLHLAGVEHVNGAESRAEFDEPHAPDRAQPGNQQGITVCFALSHHEGEDHTIDRPADYDFWRDYKPDFWPGPLLGFEAPDPRTLEPVPRTFEPNPDLDPLAVSADQSADAGDKELWGFRRILARKLHTDGAFDSDITLVNWPLNDYWLKPYIGQEAEALREARQLSLSVLYWLQTEAPRTDGGTGFPGLRPRPDVTGTADGLAKAAYVRESRRIKAVTTVTEHDVSIDLLGPYGRTRHRDSVGVGNYRIDLHPSTGGDGYVDIGSVPFEIPLGALVPRRVRNLLPAGKNLGTTHITNGCYRLHPVEWNVGEVAGALAAHCLAEDVEPHQVQAEDKRFEEFARVLDHDGVQRHWPDVRGYLEHHHHHH	not soluble
PEGSRDILFEECTIKNNIENILRNSYINVGYEEVRSPTLEFYDVYNLENQPISQEKMYKLFDNTGRILVLRPDMTTPIARICATKLKNRVYPLKLSYTGNIYRMNKALNGKISEITQSGIEILGFSSLKADAEVIITAIKAILKTGLKNFKIEIGQVEFFKSIISDTALKEQDTEKLRNFIENKNFSKVEEFILRNSDLIGETSSKVLMNLPNLFGGKEVIEKAEQLTSNKQAIEALKKVRDLYDIVKRAGFGEYILIDLGMVQHINYYTGLIFRGYAHGIGDDLLSGGRYDKLLGQFGYDIPATGLAINVDNLVAALDDCVRENL	not soluble
MSELFKKLMDQIEMPLEMKNSRVFSSADIVEVKVYPESRIWDFRFSFETILPIDFYQELRSRLVTSFETADIKAVFDIEVENAEFSNELLQAYYQEAFKQPTCNSASFKSSFSHLTVSYTDGKVLISAPQFVNNDHFRKNHLPNLEKQFEAFGF	not soluble
MYYHALKLSRLAMLTLAGVAVSASAIAADSAPTSQIGPTAEAYIVSHPDKVGEVVATYLAEHPEFLVAASETLHQRQQIAQQQAYVQLALQYRAELLSSSSPSVGPNEAKAAVVMFFDYQCSWCSKMAPVVENLIKANPDTRFIFKEFPIFSSRWPVSGLAARVGEQVWLTQGGAKYLDWHNALYATGKVEGALTEHDVYTLAQHYLTPTQLAAVKEAQSSGAVHDALLTNQALAQHMDFSGTPAFVVMPQTQDGDVKRVTVIPGSTTQDMLQMAIQKAKG	not soluble
MGSDKIHHHHHHMEVSEFCLEGRFINFVIKDGYKLKGLMLGTHEGEFYIKLAKQLRAAFDLRLPPGTWLQVVGYKKHDLKDGTITLKAERVMAARSEMGRVQTTTPVQEPPSIHNVKVKPAKAKATILVCQKSDCMKRGGKAVCQALEAALSDRGLEDQVTIKGTGCMKNCKAGPNLVMPDKTRHSRIQAAQVPRLMDKHFGDKSLEAQPENLREVAITNGKLC	not soluble
MSITLRTYIFLDALQPQLATFIGKTARGFLPVPGQASLWVEIAPGIAINRVTDAALKATKVQPAVQVVERAYGLLEVHHFDQGEVLAAGSTILDKLEVREEGRLKPQVMTHQIIRAVEAYQTQIINRNSQGMMILPGESLFILETQPAGYAVLAANEAEKAANVHLVNVTPYGAFGRLYLAGSEAEIDAAAEAAEAAIRSVSGVAQESFRDR	not soluble
MNNMTDLKAIQARSLEMAEYFVAFCKEHDLLCYLCGGGAIGALRNKGFIPWDDDLDFFMPRKDYEKLAELWPRYADERYFLSKSHKDFVDRNLFITIRDKKTTCIKPYQQDLDLPHGLALDVLPLDYYPKNPAERKKQVRWALIYSLFCAQTIPEKHGDLMKWGSRILLGLTPKSLRYRIWKKAEKEMTKYDLADCDGITELCSGPGYMRNKYPITSFEDNLFLPFEGTEMPIPIGYDVYLRTAFGDYMTPPPADKQVPHHDAVIADMDKSYTEYKGEYGGLEHHHHHH	soluble
MHPTAAALIRTLGLAPHPEGGHYRRVYASTRQVLDDSGAPPRPALTAIRFLLCAGEASRWHRVDAEECWHWQQGAPLELLIFDEASGQLRREVLDAAERGDAMHVVPAGCWQAARSLGDFTLVGCTVSPGFVWEGFALLEDGSPLAAQLAALVAEGAAPEPPTLPLEHHHHHH	not soluble
MGSDKIHHHHHHMEKYSAESIKVLKGLEPVRMRPGMYIGSTGKRGLHHLVYEVVDNSVDEALAGYCDWIRVTLHEDGSVEVEDNGRGIPVDIHPEEGRSALEVVFTVLHAGGKFSKDSYKISGGLHGVGVSVVNALSEWLEVRVHRDGKIYRQRYERGKPVTPVEVIGETDKHGTIVRFKPDPLIFSETEFDPDILEHRLREIAFLVPGLKIEFEDRINGEKKTFKFDGGIVEYVKYLNRGKKALHDVIHIKRTEKVKTKNGEDEVIVEIAFQYTDSYSEDIVSFANTIKTVDGGTHVTAFKSTLTRLMNEYGKKHNFLKKDDSFQGEDVREGLTAVISVYVKNPEFEGQTKSKLGNEEVKEAVTKAMREELKKIFDANPELVKTILSKIMSTKQAREAAKRAREMVRRKNVLQNTTLPGKLADCSSTHREKTELFIVEGDSAGGSAKQARDREFQAVLPIRGKILNVEKSSLDRLLKNEQISDIIVAVGTGIGDDFDESKLRYGRIIIMTDADIDGAHIRTLLLTLFYRYMRPLIEQGRVYIALPPLYRIKAGREEFYVYSDQELAEYKEKLQGKRIEIQRYKGLGEMNPEQLWETTMNPETRKIIRVTIEDAEEADRLFEILMGNDPSSRREFIERHALKVKELDI	not soluble
MIVIPMAGMSSRFFKAGYTQPKYMLEAHGQTLFEHSVNSFAAYFASTPFLFIVRNVYDTAVFVREKATQLGIKQFYIAELHTETRGQAETVTLGLEELAKQGVDYQGSITVFNIDTFRPNFVFPDISQHSDGYLEVFQGGGDNWSFAKPEHAGSTKVIQTAEKNPISDLCSTGLYHFNRKEDYLEAYREYVARPSQEWERGELYIAPLYNLLIQKGLNIHYHLIARHEVIFCGVPDEYTDFLRQPQPLEHHHHHH	soluble
MQATLIKPTIFTHQPILEKLFKSQSMTQEESHQLFAAIVRGELEDSQLAAALISMKMRGERPEEIAGAASALLADAQPFPRPDYDFADIVGTGGDGTNSINISTASAFVAASCGAKVAKHGNRSVCQPLAGSCDLLQAFGIRLDMSAEDSRQALDDLNVCFLFAPQYHTGFRHAMPVRQQLKTRTIFNVLGPLINPARPPKALIGVYSPELVLPIAQALKVLGYKNAAVVHGGGMDEVAIHTPTQVAELNNGEIESYQLSPQDFGLQSYSLNALQGGTPEENRDILARLLQGKGDAAHARQVAANVALLLKLFGQDNLRHNAQLALETIRSGTAFERVTALAARG	soluble
MGSDKIHHHHHHMTLADYVEIETTKDELIRACKQAADLIRTRVDYKYILVLLFLKKLSDEWKREYREALKTLMEKGVDEEEAKILAKDRSFHKFDYPEKYTWEELRKNVNELPVRLSEALKLLAEKNPELQGVVDRLDFLEFTRARDNFDILVQLFELFSGLNLGRASDSILGDAYEWLIGYFAPQKAKEGEVFTPSEVVELIVRIVDPKPMDSVYDPAAGYARMLIRAYDYVKEKYGEEEVRKLFLYGQEVNPTTYAIAKMNAIVHGIKDINLVVGDTLKNPRFKEGETFRKFDIVIANPPWNQDGYGEEELKKAEFYDERFRYGFTPKQSADWAWIQHMLASAKKKVGVVIDNGCLFRGGKEGAIRKAVVEDDLIECVILLPEKLFYNTGAPGAIIIFNKQKPESRKGKILFINASNEYEKHPEVRKLNRLGEKHIEKIVSAYREFKDGDGFCRVVDVEEVRKNDYNLNVTLYVFPQEEVEEIDVAKEWEELRGIEREIDEVERRIEEYLAELGFGRG	not soluble
MGEVVKLVTFLGLGKYEESEIKINGNLLDGCVKNDDSQDIFCVRQSIFPLALIEYLNHIGKQVETIFFLTKTVKESKTWDECRRFLRSNIKDFEIPERRIFK	not soluble
